Patent US9644034B2, “Anti-RSPO2 antibodies and uses thereof” (OncoMed Pharmaceuticals, Inc., priority 2011, dated 2017)

Assays:
Format in all cases: cell-based, human
[1] = test system: β-catenin signaling; assay: Co-culture 6xTCF-luciferase assay in STF-293 cells with lung (LU2, LU25) and ovarian (OV38) tumor cells and supernatants; conditions: tumor cells LU2, LU25, OV38; 10 μg/ml
Procedure: Similar experiments were undertaken using co-culture assays using lung tumor cell-conditioned medium and ovarian tumor cell-conditioned medium. As described above, freshly processed tumor cells depleted of stroma cells were cultured overnight. Culture medium and cells were transferred to STF-293 cells with or without Wnt3a L-cell-conditioned medium. LGR5-Fc fusion protein, a FZD8-Fc fusion protein, or a control Fc fusion protein was added (10 μg/ml). The cells were incubated for 20 hours and luciferase activity was measured as described above.

[2] = test system: β-catenin signaling; assay: Luciferase assay in STF-293 cells with LU2 cells, lung tumor cell-conditioned medium and Wnt3a-L cell-conditioned medium; conditions: increasing concentrations, 50 to 0.0006 μg/ml
Procedure: Conditioned medium from human lung tumor LU2 cells was prepared as described in Example 3 and soluble LGR5-Fc was produced as described in Example 2.
STF-293 cells were incubated with LU2 cells plus 25% lung tumor cell-conditioned medium plus 25% Wnt3a-L cell-conditioned medium. Antibody 130M23 and soluble LGR5-Fc were added to the cells in 5-fold serially dilutions from 50 μg/ml to 0.0006 μg/ml. An irrelevant monoclonal antibody, similarly diluted, and a control Fc fusion protein (50 ug/ml) were used as negative controls. The cells were incubated for 20 hours and luciferase activity was measured using Steady-Glo® Luciferase Assay System according to the manufacturer's instructions (Promega, Madison, Wis.).

[3] = test system: β-catenin signaling; assay: 6xTCF-luciferase reporter assay in STF-293 cells with lung tumor cell-conditioned medium (LT); conditions: Fc proteins 10 μg/ml, antibodies 40 μg/ml
Procedure: To prepare cell suspensions, fresh human lung adenocarcinoma xenograft tumors (lung tumor #1 in Table 2) propagated in NOD/SCID mice were minced and digested in medium 199 (Invitrogen, Carlsbad, Calif.) containing 300 U/ml collagenase type 3 (Worthington, Lakewood, N.J.) and 200 U/ml DNase I (Worthington, Lakewood, N.J.) for 1 to 2 hours at 37° C. The lung tumor cells were filtered through a 40 μm nylon strainer (BD Falcon, Franklin Lakes, N.J.), and spun down at 82×g for 5 minutes. Red blood cells were lysed in ACK buffer (0.8% ammonium chloride, 0.1 mM EDTA, 10 mM sodium bicarbonate, […]), washed, and centrifuged at 150×g for 5 minutes in medium consisting of HBSS (Mediatech, Manassas, Va.), 25 mM HEPES buffer (Mediatech, Manassas, Va.) and 2% heat-inactivated fetal bovine serum (HI-FBS; Invitrogen, Carlsbad, Calif.). Dead cells and debris were removed by centrifugation on a cushion of HI-FBS at 82×g for 8 minutes. […]
STF-293 cells are stably transfected with a 6×TCF-luciferase reporter vector. […] The cells were incubated for 16 hours and luciferase activity was measured using Steady-Glo® Luciferase Assay System according to the manufacturer's instructions (Promega, Madison, Wis.). […]

[4] = test system: β-catenin signaling; assay: TOPflash luciferase assay in HEK-293 cells: inhibition of RSPO activity by soluble LGR5; conditions: LGR5-Fc 20 to 0.02 μg/ml; controls 20 μg/ml
Procedure: Conditioned medium from human lung tumor #1 cells was prepared as described in Example 3 and soluble LGR5-Fc and RSPO2-Fc were produced as described in Example 2.
HEK-293 cells were transfected with a 6×TCF-luciferase reporter vector (TOPflash, Millipore, Billerica, Mass.). After 24-48 hrs, the transfected cells were incubated with medium containing 25% lung tumor cell-conditioned medium plus 25% Wnt3a-L cell-conditioned medium or medium containing RSPO2 (1 Ong/ml) plus 25% Wnt3a-L cell-conditioned medium. Soluble LGR5 was added to the cells in 4-fold serially dilutions at 20 μg/ml to 0.02 μg/ml. Soluble Jag-Fc protein was used as a negative control at 20 μg/ml and FZD8-Fc protein was used as a positive control at 20 μg/ml. The cells were incubated for 16 hours and luciferase activity was measured using Steady-Glo® Luciferase Assay System according to the manufacturer's instructions (Promega, Madison, Wis.).

B1: LGR5-Fc: soluble fusion protein: amino acids 22-564 of human LGR5 ligated to human Fc (protein)
chain: GSSPRSGVLLRGCPTHCHCEPDGRMLLRVDCSDLGLSELPSNLSVFTSYLDLSMNNISQLLPNPLPSLRFLEELRLAGNALTYIPKGAFTGLYSLKVLMLQNNQLRHVPTEALQNLRSLQSLRLDANHISYVPPSCFSGLHSLRHLWLDDNALTEIPVQAFRSLSALQAMTLALNKIHHIPDYAFGNLSSLVVLHLHNNRIHSLGKKCFDGLHSLETLDLNYNNLDEFPTAIRTLSNLKELGFHSNNIRSIPEKAFVGNPSLITIHFYDNPIQFVGRSAFQHLPELRTLTLNGASQITEFPDLTGTANLESLTLTGAQISSLPQTVCNQLPNLQVLDLSYNLLEDLPSFSVCQKLQKIDLRHNEIYEIKVDTFQQLLSLRSLNLAWNKIAIIHPNAFSTLPSLIKLDLSSNLLSSFPITGLHGLTHLKLTGNHALQSLISSENFPELKVIEMPYAYQCCAFGVCENAYKISNQWNKGDNSSMDDLHKKDAGMFQAQDERDLEDFLLDFEEDLKALHSVQCSPSPGPFKPCEHLLDGWLIRIGV
modifications: left off: a dimerising Fc or GST
notes: soluble fusion protein: amino acids 22-564 of human LGR5 ligated to human Fc
With B1 the “reduction of tumor-derived β-catenin activity” value [1] was “strongly reduced”, the “induction of luciferase activity by lung tumor cell-conditioned medium and Wnt3a-conditioned medium” value [2] was “reduced” and the “inhibition of the LT activity potentiating Wnt3a-induced β-catenin activity” value ([3]; LT plus Wnt3a L-cell-conditioned medium) was “inhibited”. The “inhibition of LT medium-induced β-catenin signaling” value ([3]; absence of Wnt3a) was “reducing the response to almost control levels”, the “induction of luciferase activity by RSPO2-Fc plus Wnt3a-conditioned medium” value [4] was “reduced” and the “induction of luciferase activity by lung tumor cell-conditioned medium and Wnt3a-conditioned medium” value [4] was “reduced”.
